# Results taken from the DeepSol protein solubility set.
# Assay: soluble on expression in E. coli; label from the status in PepcDB or PDB records
row,Sequence,soluble on expression in E. coli
1,MAGDPMTPTQNVPEDRIQIGQLRSAYGLNGWLWVYSNTEPMSNMFDYLPWFIETKAGWQTVDVKRWKPHGKGLVVSLKNVSDRNAAESLIGSTIWVAKSQLPKTDVDEYYWSDLKGLTVLGLDEEEQEVNLGQIHELFETGANDVMVVRATADSVDAEERMIPWHKDVVQRVDLEAGRIYVNWGVDYLEHHHHHH,soluble
2,MSLTERKQRFLRRILTYYTLKRRESKWIIDYWLRNDSKLEQVHFVQNAMFAPKAMIITTYGFDADPFLFKKGEVKTTDPEKAYHDIRLTDEPLYIELNFQGMMMDDEYLSLLEENPFRPEVAVEPKLADAAMNFIAATVNRQEEERLVRLIDEALDARDKHRFQSLSDELRIIRSQLEGHHHHHH,soluble
3,DDSLGEAVTTRAEALTIPAVLRARNLLSTTVARTPLVCDGTLPPFVPVAAPPGAATMQTPFHRMLATADDLLFNGVACWALDRDESGTCIGAIHIPLDTWQIEENTVRVNGKAVDPMEVCIFVGIHGGLLTHASETFTDARNLVRAAARVAQNPAALIELRQTNNAQLSPDDVDRIINGYVAARRGRNSGVGFSSSGLEVHEHEMAKENLLIEGRNAAAVDVARAMNVPAAFIDATVGGTSLSYQNAASRMIELVTFGVEPLMSAIEARLNQPDMHADHLANPLKFDPAALLDAIPTTPTIGAQPHGENS,soluble
4,GMDIMLNTADISAAAILLPVEGAQLSELRQIPAEGGPVLHMLRLDSPQFSQFGEIYFSEVLPRRVKAWKRHSLMTQLFAVPVGCIHVVLYDGREKSPTSGRLAQVTLGRPDNYRLLRIPPQVWYGFAATGDTPALVANCTDIPHRQGESERAPQDAPFIPFSWAGADLSGTPVM,soluble
5,MKSLQALFGGTFDPVHYGHLKPVETLANLIGLTRVTIIPNNVPPHRPQPEANSVQRKHMLELAIADKPLFTLDERELKRNAPSYTAQTLKEWRQEQGPDVPLAFIIGQDSLLTFPTWYEYETILDNAHLIVCRRPGYPLEMAQPQYQQWLEDHLTHNPEDLHLQPAGKIYLAETPWFNISATIIRERLQNGESCEDLLPEPVLTYINQQGLYR,soluble
6,RSLTMTLEELMNAPAPASRWVLERDCAETGLDPADIRAEMLRRIGEMRSSVERGLQSDARSITGMVGWNAKGLWDAPDVLGAPLLKRVQAYAMAVNEENARMGRIVAAPTAGSAGTIPGALLGVADHLGLSDEQLVDPMILAAGVGKAISKRMFISGAAGGCQAE,not soluble
7,MSLKSSTEKKLAAARGTAELIVEDAKKEAETTKKEALLEAKEENHRLRTEIENELRGRRTETQKAENRLLQREENLDRKDTSLSKREATLERKEESISKRQQQIEEKESKLAEMIQAEQTELERISALSKEEAKSIILNQVEEELTHDTAIMVKESENRAKEESDKKAKNILSLAIQRCAADHVAETTVSVVTLPNDEMKGRIIGREGRNIRTLETLTGIDLIIDDTPEAVILSGFDPIRREIARIALEKLVQDGRIHPARIEEMVDKARKEVDEHIREVGEQATFEVGIHSIHPDLIKILGRLRYRTSYGQNVLNHSLEVSKLAGILAGELGEDVTLAKRAGLLHDIGKAIDHEIEGSHVEIGVELATKYKENDVVINSIASHHGDTEATSVIAVLVAAADALSAARPGARSETLENYIRRLEKLEEISESYDGVEKSYAIQAGREVRIIVEPDTIDDLSSYRLARDIRKRIEEELDYPGHIKVTVIRETRAVEYAKEGHHHHHH,not soluble
8,MSLEDVIEKLRELNEPVPVPLELPEEELLVEIEEELLIGIPAEFREFLLLVSDVVYGRLEPVTVTDPHSHTYLPEVAATAWDLGVPRELIPLCEDDGSYYCVAEDGEVVLWADGDLTDESWDSVWVWARDVWLESEGHHHHHH,soluble
9,MGSDKIHHHHHHMYVDEIHVEKCGPLSVGVYGGNQESDAYERGDAVLAWWDPELQFEFVMIFDTHHKTKNIDYIIEAISERKEKLKELFSYPIHLAFHHTHMYLLALFTDELFIEKCDQDDEELACLICLRKGEFLYWLSVGDCFAYLFHSEKTKNGKGRLNKRKNYEYIGRKNIFAANTPCFTSGVRGLEKGMNHIVMATDGILECDKRRFDDDQSLIEILHDGSCLQIEPVLTNVLQWKGRDCATIIGWSIDTENKRCAN,not soluble
10,MKFAVIGNPISHSLSPLMHHANFQSLNLENTYEAINVPVNQFQDIKKIISEKSIDGFNVTIPHKERIIPYLDDINEQAKSVGAVNTVLVKDGKWIGYNTDGIGYVNGLKQIYEGIEDAYILILGAGGASKGIANELYKIVRPTLTVANRTMSRFNNWSLNINKINLSHAESHLDEFDIIINTTPAGMNGNTDSVISLNRLASHTLVSDIVYNPYKTPILIEAEQRGNPIYNGLDMFVHQGAESFKIWTNLEPDIKAMKNIVIQKLKGELLEHHHHHH,soluble
11,TKDFTWDLSYNITWNHNEITKLTGGDDSDYYVEAGDKISRGNNTKVQAHKVGYAANSFYVYQQVYDENGKPIENMFVDRNGNGTIDSGDKYIYKKPAGDVLMGLTSKMQYKNFDFSFSLRASLNNYVYYDFLSNKANVSTSGLFSNNAYSNTSAEAVALGLSGQGDYMSDYFIHNASFLRCDNITLGYSFQNLWKTQTYKGVGGRVYATVQNPFIISKYKGLDPEVKSGIDANPYPRAMTFLLGLSLQF,not soluble
12,MGSDKIHHHHHHMRPRILLYTGKGGVGKTSIAAATGALLSSKGHKTLIISTDPAHSLGDAFGMEIGHSIKQLADNLYGQEVSVVQSINEHWGELKDYLRSLFLSQGLDPVSADEIATLPGFEEASELLYLRNYYYDEEYDTIIMDSAPTGAALQLLSFPEVMTWYMDKLFPISRKTARVARPLLKPFVDIPLPEDAVFENIDLLYRQLTDIRKILTNNDVTSIRLVTNPDNMSYSETKRAYTYLLLYGYPVDAVIINKILSDETGDFFEKMRGSQKDIITEMENSFVDIKIFKARLLQEEPIGIKKLIELGKLIYGDEDPYKVFYKGTPIKYTKNGDRYILKIKMPFAEKEKLNLFNHGGELTIEIANWKRVFYLPESISDKRPVSAEYSNGYLNVILE,not soluble
13,MSLFLNRLSLPKDYFIDTFLYYSDQDIAQISSYLPESNVSANVPGFKKNFVLKVFDHKIKPGETLSHVAARYQITSETLISFNEIKDVRNIKPNSVIKVPNMKGIVYIVKKNDSISSIASAYNVPKVDILDSNNLDNEVLFLGQKLFIPGGRLPKDFLKEVLGETFIYPVQGVITSGYGYRPDPFTGVISFHNGIDIANLANTPIKASREGVVVTAGFNAGGYGKYIVISHSNGFQTLYAHLNSFAVKVGKKVSRGAVIGYMGSTGYSTGNHLHFTIFKNGKTENPMKYEGHHHHHH,not soluble
14,MSGQSLTDRITAAQHSVTGSAVSKTVCKATTHEIMGPKKKHLDYLIQCTNEMNVNIPQLADSLFERTTNSSWVVVFKSLITTHHLMVYGNERFIQYLASRNTLFNLSNFLDKSGLQGYDMSTFIRRYSRYLNEKAVSYRQVAFDFTKVKRGADGVMRTMNTEKLLKTVPIIQNQMDALLDFNVNSNELTNGVINAAFMLLFKDAIRLFAAYNEGIINLLEKYFDMKKNQCKEGLDIYKKFLTRMTRISEFLKVAEQVGIDRGDIPDLSQAPSSLLDALEQHLASLEGKK,soluble
15,MGSDKIHHHHHHMQLKPLLRQLATTFEVTVDPTFTHNPEVTHVQFVDPTEALASHRLYLSPDSSQLVQLTYSWHGHRQSVGLVNLGTGLTTIIAAQNQLLKLLMTLGQCLHHDVQIQAAINQLAIQAITADFDTTLAQAVRLLENPLAIIDLNGEILTRSHTTQLNGTSIHAAVETNRVGRWLLDHGFAPDTPDFLTQVYVAEDQLSAGPMLITPLANGTEPLGYLVMPALNKPLNDRQALLINSIGQVIAGSLVKNQIMPTAESQRDRLLNLLLTEHQGGTFADQFAEQHVQLPTAMVLIRCEPLADQAPMILQQRLQYLMMPRFKQVLVSTYQQQCVALIPISLVAYNQNQFKLTLQQITKQADCRLIVSQHYVNPEDTFAAYTVCERTAQLKTGRGRVIFCEDQFYNLALARVNHLEILPFFINPALRLLLAYDQQNHTELVPTLDVYLRATCNLTRTAKQLYVHPNTLRNRLHHITTLTGCDLRDAETCFKLAASFKLRQFLTQHQYQYRPDIPIPTQD,not soluble
